Results published in patent publication US12344663B2, “Anti-C3 antibodies and antigen-binding fragments thereof and their uses for treating eye or ocular diseases” (CDR-Life AG, priority 2021, dated 2025).

Test system: pre-existing ADA
Assay: Bridging ELISA screen for pre-existing ADA in sera of healthy human donors
Settings: 10% serum of healthy human donors
Description: The inventors screen sera of healthy human donors for pre-existing ADA against Clone I using a bridging ELISA. Pre-existing ADAs present in serum from healthy human donors are bound by immobilized anti-C3 scFv. In a next step, ADAs are bound by the same anti-C3 scFv labeled with biotin and are detected by HRP-conjugated Streptavidin.
The scFv is biotin-labeled using the “Biotin Conjugation Kit (Fast, Type A)-Lightning-Link”-Kit (Expedeon/Abcam) following the suppliers' instructions. The unlabeled scFv is diluted to 0.5 μg/ml in PBS, 50 μl per well transferred to a 96 well plate and incubated overnight at 4° C. On the next day, the 96 well plate is washed with wash buffer (3×320 μl, 0.05% Tween 20 in PBS pH 7.4) and non-specific binding sites are blocked with 300 μl/well blocking buffer (SuperBlock Blocking Buffer; ThermoFisher scientific) for 30 min at room temperature. The wells are then washed with wash buffer (3×320 μl/well)
Human serum from healthy volunteers is diluted to 10% in PBS, 50 μl/well are added to the 96 well plate and the plate incubated for 1 hr at room temperature. […]
The plate is washed (3×320 μl/well wash buffer), 50 μl/well TMB substrate (Invitrogen) is added and incubated for 5 min at room temperature. […] The absorption is measured at 450 nm. […]

B1: Clone I: humanized anti-C3 scFv, VH SEQ ID NO: 20, VL SEQ ID NO: 21; scFv SEQ ID NO: 26 or 27 (antibody, V domains shown)
VH: QVQLVESGGGSVQPGRSLRLSCAASGFTFSNYAMNWVRQAPGKGLEWVAVISYDGSNKYYADSVKGRFTISRDNSKNTLYLQMNSLRAEDTASYYCARAVGYHHARLDPWGCGTSVTVSS
VL: QLVLTQSPSASASLGASVKLTCTLSSAHKTYTIDWYQQQPEKCPRYLMQLKSDGSYTKGSGIPDRFSGSSSGAERYLTISSLQSEDEADYYCGTEGVGGYVFGGGTKLTVLG
modifications: VH; VL
Serum samples with pre-existing ADA: 9 out of 50
